Measured values reported in EP1918299A1 (UNIVERSITE DE GENEVE, dated 2008).

T1: myc-tagged version of Necl-3 (pNecl-3-myc) (human, UniProt Q8N3J6 25-435)
T1 construct: On S2 cells in the aggregation assay; not shown: C-terminal myc-His tag of vector pcDNA3.1/myc-His
T1 sequence: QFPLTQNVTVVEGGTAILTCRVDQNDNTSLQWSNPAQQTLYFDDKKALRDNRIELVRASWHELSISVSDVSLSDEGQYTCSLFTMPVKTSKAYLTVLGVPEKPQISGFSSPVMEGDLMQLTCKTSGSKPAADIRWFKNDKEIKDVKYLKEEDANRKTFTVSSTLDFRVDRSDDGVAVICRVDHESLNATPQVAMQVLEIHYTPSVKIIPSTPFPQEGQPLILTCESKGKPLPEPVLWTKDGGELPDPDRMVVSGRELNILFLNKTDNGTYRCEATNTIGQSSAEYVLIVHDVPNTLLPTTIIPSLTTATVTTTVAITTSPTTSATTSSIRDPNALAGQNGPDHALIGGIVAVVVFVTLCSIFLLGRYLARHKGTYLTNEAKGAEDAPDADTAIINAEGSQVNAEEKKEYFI

T2: Necl-1-GFP (human Necl-1 fused to GFP at its carboxy-terminus) (human, UniProt Q8N126 25-398)
T2 construct: Expressed in S2 cells; In lysate in the western blot; also called pMT-Necl-1-GFP; not shown: GFP of vector pEGFP-N1 (BD Biosciences Clontech), C-terminal fusion
T2 sequence: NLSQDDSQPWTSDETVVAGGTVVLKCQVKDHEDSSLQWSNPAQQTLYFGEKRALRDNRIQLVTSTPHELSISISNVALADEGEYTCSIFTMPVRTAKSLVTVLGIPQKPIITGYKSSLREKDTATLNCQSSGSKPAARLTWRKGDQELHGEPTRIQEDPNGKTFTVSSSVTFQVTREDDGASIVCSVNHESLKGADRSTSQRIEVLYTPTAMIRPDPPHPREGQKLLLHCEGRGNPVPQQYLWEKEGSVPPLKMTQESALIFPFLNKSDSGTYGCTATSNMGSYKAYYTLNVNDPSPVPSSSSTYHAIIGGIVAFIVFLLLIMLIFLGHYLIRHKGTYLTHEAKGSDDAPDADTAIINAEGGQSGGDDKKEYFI

B1: Necl-2-GFP (human Necl-2 fused to GFP at its carboxy-terminus) (other)
chain: QNLFTKDVTVIEGEVATISCQVNKSDDSVIQLLNPNRQTIYFRDFRPLKDSRFQLLNFSSSELKVSLTNVSISDEGRYFCQLYTDPPQESYTTITVLVPPRNLMIDIQKDTAVEGEEIEVNCTAMASKPATTIRWFKGNTELKGKSEVEEWSDMYTVTSQLMLKVHKEDDGVPVICQVEHPAVTGNLQTQRYLEVQYKPQVHIQMTYPLQGLTREGDALELTCEAIGKPQPVMVTWVRVDDEMPQHAVLSGPNLFINNLNKTDNGTYRCEASNIVGKAHSDYMLYVYDPPTTIPPPTTTTTTTTTTTTTILTIITDSRAGEEGSIRAVDHAVIGGVVAVVVFAMLCLLIILGRYFARHKGTYFTHEAKGADDAADADTAIINAEGGQNNSEEKKEYFI
notes: Expressed in S2 cells; on cells in aggregation assays, in cell lysate in the western blot and the pull-down; also called pMT-Necl-2-GFP; not shown: GFP of vector pEGFP-N1 (BD Biosciences Clontech), C-terminal fusion
B2: Necl-3-GFP (human Necl-3 fused to GFP at its carboxy-terminus) (other)
chain: QFPLTQNVTVVEGGTAILTCRVDQNDNTSLQWSNPAQQTLYFDDKKALRDNRIELVRASWHELSISVSDVSLSDEGQYTCSLFTMPVKTSKAYLTVLGVPEKPQISGFSSPVMEGDLMQLTCKTSGSKPAADIRWFKNDKEIKDVKYLKEEDANRKTFTVSSTLDFRVDRSDDGVAVICRVDHESLNATPQVAMQVLEIHYTPSVKIIPSTPFPQEGQPLILTCESKGKPLPEPVLWTKDGGELPDPDRMVVSGRELNILFLNKTDNGTYRCEATNTIGQSSAEYVLIVHDVPNTLLPTTIIPSLTTATVTTTVAITTSPTTSATTSSIRDPNALAGQNGPDHALIGGIVAVVVFVTLCSIFLLGRYLARHKGTYLTNEAKGAEDAPDADTAIINAEGSQVNAEEKKEYFI
notes: Expressed in Drosophila S2 cells; on cells in the aggregation assays, in crude cell lysate in the western blot; also called pMT-Necl-3-GFP; not shown: GFP of vector pEGFP-N1 (BD Biosciences Clontech), C-terminal fusion

How the values were obtained:
Experiment in all cases: S2 cell aggregation assay
[1] = molecular target: B2
[2] = molecular target: T1, myc-tagged version of Necl-3 …
[3] = molecular target: T2, Necl-1-GFP (human Necl-1 fused to GFP …)
[4] = molecular target: B1
[5] = molecular target: the molecule itself

| Binder | binding result [1] | binding result [5] | also measured |
| --- | --- | --- | --- |
| Necl-1-DsRed2 (human Necl-1 fused to DsRed2) (other, On S2 cells; also called pMT-Necl-1-DsRed2; not shown: DsRed2 (Discosoma Red) of vector pDsRed2-N1 (BD Biosciences Clontech), C-terminal fusion) NLSQDDSQPWTSDETVVAGGTVVLKCQVKDHEDSSLQWSNPAQQTLYFGEKRALRDNRIQLVTSTPHELSISISNVALADEGEYTCSIFTMPVRTAKSLVTVLGIPQKPIITGYKSSLREKDTATLNCQSSGSKPAARLTWRKGDQELHGEPTRIQEDPNGKTFTVSSSVTFQVTREDDGASIVCSVNHESLKGADRSTSQRIEVLYTPTAMIRPDPPHPREGQKLLLHCEGRGNPVPQQYLWEKEGSVPPLKMTQESALIFPFLNKSDSGTYGCTATSNMGSYKAYYTLNVNDPSPVPSSSSTYHAIIGGIVAFIVFLLLIMLIFLGHYLIRHKGTYLTHEAKGSDDAPDADTAIINAEGGQSGGDDKKEYFI | binds | – | – |
| B1 | – | – | binding result [2]: binds |
| Necl-4-DsRed2 (human Necl-4 fused to DsRed2) (other, On S2 cells; also called pMT-Necl-4-DsRed2; not shown: DsRed2 (Discosoma Red) of pMT-DsRed2, C-terminal fusion) QEVQTENVTVAEGGVAEITCRLHQYDGSIVVIQNPARQTLFFNGTRALKDERFQLEEFSPRRVRIRLSDARLEDEGGYFCQLYTEDTHHQIATLTVLVAPENPVVEVREQAVEGGEVELSCLVPRSRPAATLRWYRDRKELKGVSSSQENGKVWSVASTVRFRVDRKDDGGIIICEAQNQALPSGHSKQTQYVLDVQYSPTARIHASQAVVREGDTLVLTCAVTGNPRPNQIRWNRGNESLPERAEAVGETLTLPGLVSADNGTYTCEASNKHGHARALYVLVVYDPGAVVEAQTSVPYAIVGGILALLVFLIICVLVGMVWCSVRQKGSYLTHEASGLDEQGEAREAFLNGSDGHKRKEEFFI | binds | – | binding result [3]: binds; binding result [4]: binds |
| Necl-4-GFP (human Necl-4 fused to GFP at its carboxy-terminus) (other, In lysate in the western blot; also called pMT-Necl-4-GFP; not shown: GFP of vector pEGFP-N1 (via pMT-GFP), C-terminal fusion) QEVQTENVTVAEGGVAEITCRLHQYDGSIVVIQNPARQTLFFNGTRALKDERFQLEEFSPRRVRIRLSDARLEDEGGYFCQLYTEDTHHQIATLTVLVAPENPVVEVREQAVEGGEVELSCLVPRSRPAATLRWYRDRKELKGVSSSQENGKVWSVASTVRFRVDRKDDGGIIICEAQNQALPSGHSKQTQYVLDVQYSPTARIHASQAVVREGDTLVLTCAVTGNPRPNQIRWNRGNESLPERAEAVGETLTLPGLVSADNGTYTCEASNKHGHARALYVLVVYDPGAVVEAQTSVPYAIVGGILALLVFLIICVLVGMVWCSVRQKGSYLTHEASGLDEQGEAREAFLNGSDGHKRKEEFFI | – | binds | – |
| B2 | – | binds | – |
